From publication PMC2164975 come the findings set out here.

The target in the assay is GST-QM fusion protein, full-length QM (human) (UniProt P27635). The experiment in a line: pull-down.

For the substance “normal full-length PS1, in vitro translated and radiolabeled with [35S]methionine (from UniProt P49768 1-467) (natural protein)”, the ratio between the input and the pulled-down amounts was determined as 95%.
